Assay: soluble on expression in E. coli; label from the status in PepcDB or PDB records

| Sequence | soluble on expression in E. coli |
| --- | --- |
| GGAFTWDTDFNISFNRNKLTKLELQKVYYDAKTADVVNDYVVRNEPGRALGGFYGYISDGVDPETGELMYRDLSGDGKISTSDRTYIGDPNPDFTYGLTNTFSWKGFNLSVFIQGSYGNDIFNASRIETEGMYDGKNQSTKVLNRWKIPGQITNVPKANFKLLNSTYFIEDGSYLRLKDVSLSYNFKGKLLQKWGITRLQPYFTATNLLTWTSYSGMDPEVNQWGNSGTVQGIDWGTYPHSRSYVFGINVEF | not soluble |
| GGELVLLPAPQIPLIMKIMKKHTPTWVPGVPTLYQKIVEAAERDGISISGVRNSFSGASSLPVETVARWEALTGGLLVEGYGLTETSPIIVGNPMTTDRRPGYVGVPFPDTEIRIANPDNLDETMPDGQEGEVLVRGPQVFSGYLNNPEATAKSFHGQWYRTGDVGIMEEDGFIRLVARIKEVIITGGFNVYPAEVEEVLRNHPDITDATVVGLPRGD | not soluble |
| GGIYGIGLDITELKRIASMAGRQKRFAERILTRSELDQYYELSEKRKNEFLAGRFAAKEAFSKAFGTGIGRQLSFQDIEIRKDQNGKPYIICTKLSPAAVHVSITHTKEYAAAQVVIERLSS | soluble |
| GGRALRVLVDMDGVLADFEGGFLRKFRARFPDQPFIALEDRRGFWVSEQYGRLRPGLSEKAISIWESKNFFFELEPLPGAVEAVKEMASLQNTDVFICTSPIKMFKYCPYEKYAWVEKYFGPDFLEQIVLTRDKTVVSADLLIDDRPDITGAEPTPSWEHVLFTACHNQHLQLQPPRRRLHSWADDWKAILDSKRPC | soluble |
| GGTSNEVAQFLSKENQVIVRMRGLPFTATAEEVVAFFGQHCPITGGKEGILFVTYPDGRPTGDAFVLFACEEYAQNALRKHKDLLGKRYIELFRSTAAEVQQVLNRFSSA | soluble |
| GHHHHHHHHHHGLVPRGSHMNIQSIETYQVRLPLKTPFVTSYGRLEEKAFDLFVITDEQGNQGFGELVAFEQPDYVQETLVTERFIIQQHLIPLLLTEAIEQPQEVSTIFEEVKGHWMGKAALETAIWDLYAKRQQKSLTEFFGPTRRKIPVGISLGIQEDLPQLLKQVQLAVEKGYQRVKLKIRPGYDVEPVALIRQHFPNLPLMVDANSAYTLADLPQLQRLDHYQLAMIEQPFAADDFLDHAQLQRELKTRICLDENIRSLKDCQVALALGSCRSINLKIPRVGGIHEALKIAAFCQENDLLVWLGGMFESGVGRALNLQFASQPTFSFPGDISATERYFYEDIITEPFILEQGTMTVPQGLGIGVTLSQTNLLKYSQYQKIM | soluble |
| GHMAKAYKQAGVDIEAGYQAVALMKEHVQKTMRPEVLGGIGGFGGLFDLSALGYRQPVLISGTDGVGTKLKLAFLLDRHDTIGIDCVAMCVNDIIVQGAEPLFFLDYIACGKAVPEKIAAIVKGVADGCVEAGCALIGGETAEMPGMYDEDEYDLAGFAVGVAEKERLITGETIQAGDALVGLPSSGLHSNGYSLVRRIVFEQAKLSLDEIYEPLDVPLGEELLKPTRIYAKLLRSVRERFTIKGMAHITGGGLIENIPRMLPPGIGARIQLGSWPILPIFDFLREKGSLEEEEMFSVFNMGIGLVLAVSPETAAPLVEWLSERGEPAYIIGEVAKGAGVSFAGGGRA | soluble |
| GHMGAWLASLKQTLGLLPADRKIRVLMLGLDNAGKTSILYRLHLGDVVTTVPTVGVNLETLQYKNISFEVWDLGGQTGVRPYWRCYFSDTDAVIYVVDSTDRDRMGVAKHELYALLDEDELRKSLLLIFANKQDLPDAASEAEIAEQLGVSSIMNRTWTIVKSSSKTGDGLVEGMDWLVERLREQGLGA | soluble |
| GHMKGLTEKLMILSHQSIKNLLGKVILNYSEENVRENGYDLRICGDKYYELVQGAELPEKKATLREIEFKERAILSANHTYLFESCEEFNMPADLAVLITLKSTLARNGFLAPPTVIDAGYKGKVNVAITAVYNSSLKKGMATHHLIFLKLDKPTERLYNGKYQGGILI | soluble |
| GHMPNIPPPFTAPYAPDDAEIAARLLPASHLSPPQEARIHRTATRLIEAIRKRDDRLGGVEDMLREFALSTKEGLALMVLAEALLRVPDARTADQFIEDKLGEGDFIHHETKSTAFLVNASAWALGLSARVIQPGETPDGTIGRLVKRLGAPAVRTATRQAMRLMGNHFVLGETIEQALERGKPRSGQKTRYSFDMLGEGARTAADARRYFDAYASAIETIGKAAGNHALPDRPGISVKLSALHPRFEAISRARVMVELVPQLLDLAQRAKAHDLNFTVDAEEADRLELSLDVIAATLADPSLKGWDGFGLAIQAYQKRASAVIDYVDALARAHDRKLMVRLVKGAYWDTEIKRAQERGLDGYPVFTRKAMTDLNYVACASKLLALRPRIFPQFATHNALTVATVLEMAEGSSGFEFQRLHGMGEALYEQLAKDHADIAYRTYAPVGSHRDLLAYLVRRLLENGANSSFVAQAADYRVPVPALLQRPADAIVRPQAAAHPRIPLPCDLFAPERRNSRGVEFGARTALDQLLTDVKAETGDLKPIADATPDQAHAAVAAARAGFAGWSRTPAGIRAAALEQAAHLLESRSAHFIALLQREGGKTLDDALSELREAADFCRYYAAQGRKLFGSETAMPGPTGESNALTMRGRGVFVAISPWNFPLAIFLGQVTAALMAGNSVVAKPAEQTPRIAREAVALLHEAGIPKSALYLVTGDGRIGAALTAHPDIAGVVFTGSTEVARSINRALAAKDGPIVPLIAETGGINAMIADATALPEQVADDVVTSAFRSAGQRCSALRLLFVQEDVADRMIEMVAGAARELKIGDPSDVATHVGPVIDVEAKQRLDAHIARMKTEARLHFAGPAPEGCFVAPHIFELTEAGQLTEEVFGPILHVVRYRPENLERVLRAIERTGYGLTLGVHSRIDDSIEAIIDRVQVGNIYVNRNMIGAVVGVQPFGGNGLSGTGPKAGGPHYLARFATEQTVTINTAAAGGNAALLAGEE | soluble |
| GHMSRRYWQLDVFAERPLTGNGLAVFDDASALDDAAMQAWTRELRQFESIFLLPGDDPRAFRARIFTLEEELPFAGHPLLGAAALLHHLRGGDNEQHWTLHLASKSVALRSVRAGSGFYAEMDQGRAEFGATPDAGTCRWFAEAFSLSANDLSGHPPRVVSTGLPYLLLPVTAEALGRARQVNDLQEALDKLGAAFVYLLDVDGREGRTWDNLGLVEDVATGSAAGPVAAYLVEYGLAARGEPFVLHQGRFLERPSRLDVQVATDGSVRVGGHVQLLARAELLTSAGS | soluble |
| GHMTKLNQESTAPKVLFTGVVDARGERAVLALGGSLAGSAAEASHLVTDRIRRTVKFLCALGRGIPILSLDWLHQSRKAGFFLPPDEYVVTDPEQEKNFGFSLQDALSRARERRLLEGYEIYVTPGVQPPPPQMGEIISCCGGTYLPSMPRSYKPQRVVITCPQDFPHCSIPLRVGLPLLSPEFLLTGVLKQEAKPEAFVLSPLEMSST | soluble |
| GHVSDRPAGRMPLTVHRNVGRWLSEILHASIRDTGVSSRIEFVRRTLHGWVREEYSETELPNAVYRNLYFPVLDAQPAHAGSGKIETISECDRLKNLVRNVTDTLVENYPQGLESEALLIALDGVKLELARIRKDIEMYGDPRKR | soluble |
| GIDPFTNEAASAAGVVGGMVDSITQAINQLDEGPMGDPEGSFVDYQTTMVRTAKAIAVTVQEMVTKSNTSPEELGPLANQLTSDYGRLASQAKPAAVAAENEEIGAHIKHRVQELGHGCSALVTKAGALQCSPSDVYTKKELIECARRVSEKVSHVLAALQAGNR | soluble |
| GITPKYTATAKVYMVSASKNSVVDLADLSIGTSLSEDYAELLHVRPIIEAINEENDLGYTYEQLNGMIDISTVEDTRILKISATSIKPEEAKTIANALAEKAVTEIPKLMGTSSPNIAERAITPKGKSSPSLKKN | soluble |
| GITPRFSITQDEEFIFLKIFISNIRFSAVGLEIIIQENMIIFHLSPYYLRLRFPHELIDDERSTAQYDSKDECINVKVAKLNKNEYFEDLDLPTKLLARQGDLAGADALTENTDAKKTQKPLIQEVETDGVSNN | soluble |
| GKDFSYWVKMTTGYSDNKIKEAGFQATPGFDDIVRGERSDRGVWGYECIGMFRTYQDIEEYFAVNKITSYLGNTKDNIHPGMLIYRDVRGQRNADGTYGEADGVIDQNDYVKISN | not soluble |
| GKREPDLTGGFSTYLKYKNITFNALFSFSFGNKMRLNDLYESSGQRLPYPDQNMSSEFVNRWREPGDEDRTIIPVLSDKSLQINDKDVTYRIADNGWDMYNKSDIRVVSGSFLRCRSMSIRYDFKREWLKPVYLKGASVSFDMGNVFVIKDKALKGRDPEQIGFGSRSIPPQRSYSLRFNITL | not soluble |
| GKRKLATISTKGKVKDLTDTLVGSSIGRPYISGGFTASSEGYMAFTQGSSSRPADVAVINTRKKLVKLTQLNEDLLAHKNLGKVTEINYKSSFDDEPIQGWYVTPPNFDPKKKYPLILEIHGGPHLAYGPHFSAELQRFAAQGYVVFYDNHRGSSSYGERFAMLLKYKYSSKEDFADHNSGVDAMLGLGFIDEGNLFIAGGSAGGIATAYAIGLTDRFSAAVVVKPVINWLSKVLTADSGLGQIPTQFPGMPWEHVEHYWKRSPMSLVGNVTTPTMLMTGEEDLRTPMAQTEQFYQALKLRKIDTVLVKVPGSPHGIAGKPSRMITKIEHTLAWFEKYKT | not soluble |
| GKRSHSMKRNPNAPVTKAGWLFKQASSGVKQWNKRWFVLVDRCLFYYKDEKEESILGSIPLLSFRVAAVQPSDNISRKHTFKAEHAGVRTYFFSAESPEEQEAWIQAMGEAARVQ | soluble |
| GKSTTLFSRHTKAIVWGMQTRAVQGMLDFDYVCSRDEPSVAAMVYPFTGDHKQKFYWGHKEILIPVFKNMADAMRKHPEVDVLINFASLRSAYDSTMETMNYAQIRTIAIIAEGIPEALTRKLIKKADQKGVTIIGPATVGGIKPGCFKIGNTGGMLDNILASKLYRPGSVAYVSRSGGMSNELNNIISRTTDGVYEGVAIGGDRYPGSTFMDHVLRYQDTPGVKMIVVLGEIGGTEEYKICRGIKEGRLTKPIVCWCIGTCATMFSSEVQFGHAGACANQASETAVAKNQALKEAGVFVPRSFDELGEIIQSVYEDLVANGVIVPAQEVPPPTV | soluble |
| GLLMEGDEPAGGKWNFDTENRKPAAPDLLRPRPLRFEPDAEVRAVLDLVEARFPRHFGRLRPFHWATDRAEALRALDHFIRESLPRFGDEQDAMLADDPFLSHALLSSSMNLGLLGPMEVCRRAETEWREGRAPLNAVEGFIRQILGWREYVRGIWTLSGPDYI | not soluble |

— the DeepSol protein solubility set
